Measured values published in patent US20140348836A1 (published 2014).
Positions count from the first letter of the chain named. Names may count otherwise.

B1: Antibody clone A4 (antibody, human IgG1, lambda, V domains shown)
VH: EVQLLESGGGLVQPGGSLRLSCAASGFTFSTYGMHWVRQAPGKGLEWLSYISGGSSYIFYADSVRGRFTISRDNSENALYLQMNSLRAEDTAVYYCARILRGGSGMDLWGQGTLVTVSS
VL: QSVLTQPPSASGTPGQRVTISCTGSTSNIGAGYKVYWYQQLPGTAPKLLIYGNINRPSGVPDRFSGSKSGTSASLAISGLRSEDEADYYCAAWDDSLSGLVFGGGTKLTVLG
notes: Tested as purified antibody; full chains are assembled here from VH/VL plus these; also called A4 ANTI-CD40 ANTIBODY
B2: Antibody B44 (antibody, V domains shown)
VH: B1 VH
VL: B1 VL with T26S, K34D
notes: Parent agonistic anti-CD40 antibody from the n-CoDeR library; Run alongside the IgG clones as 'B44 antibody' and detected with anti-human Ig on RAMOS cells; also called B44 antibody; original anti-CD40 antibody
B3: Antibody clone B9 (antibody, human IgG1, lambda, V domains shown)
VH: B1 VH
VL: B1 VL with T26S, K34N, D95G, S96G, S98L
B4: Antibody clone F6 (antibody, human IgG1, lambda, V domains shown)
VH: B1 VH
VL: B1 VL with T26S, K34D, G52R, D95G, S98L
B5: Antibody clone C4 (antibody, human IgG1, lambda, V domains shown)
VH: B1 VH with S63T
VL: B1 VL
notes: Same VL changes as A4; VH carries S63T; also called C4 ANTI-CD40 ANTIBODY
B6: Antibody clone A5 (antibody, human IgG1, lambda, V domains shown)
VH: B1 VH
VL: B1 VL with T26S, K34H, N53S, A73G, D95S, L97S
B7: Antibody clone H11 (antibody, human IgG1, lambda, V domains shown)
VH: B1 VH
VL: B1 VL with T26S, K34N, D95G, S96G, S98L
notes: also called H11 ANTI-CD40 ANTIBODY
B8: Antibody clone F9 (antibody, human IgG1, lambda, V domains shown)
VH: B1 VH
VL: B1 VL with T26S, K34G, D95G, S96T, S98T, V101L

Molecular target: T1, human CD40 on cells (human, UniProt P25942 21-277)
T1 construct: whole, on cells; One molecule is used for native or transfected full-length human CD40 on all the cell types tested; also called CD40 on RAMOS cells; CD40 receptor on dendritic cells
Test: flow cytometry (FACS) on RAMOS cells, anti-human Ig F(ab')2-FITC detection, MFI
Method: (§1) The human Burkitt's lymphoma cell line RAMOS was used for binding analysis (ECACC, Sigma Aldrich, USA). The unconjugated anti-CD40 antibodies of the invention were assayed for binding to RAMOS cells.
(§2) RAMOS cells, approximately 125,000 cells, were incubated with anti-CD40 antibody, serially diluted 1/3 from 30-0.0015 μg/ml, for 30 minutes at 4° C. The cells were washed twice with FACS buffer and the secondary antibody, anti-human Ig Rabbit F(ab′)2/FITC (DAKO, Glostrup, Denmark), was subsequently added to the cells for another 30 minutes at 4° C. The cells were washed and analysed on a FACScalibur instrument, according to the manufacturer's instructions (Becton Dickinson, USA) and then the mean fluorescent intensity (“MFI”) was determined.

T1 sequence (P25942 21-277): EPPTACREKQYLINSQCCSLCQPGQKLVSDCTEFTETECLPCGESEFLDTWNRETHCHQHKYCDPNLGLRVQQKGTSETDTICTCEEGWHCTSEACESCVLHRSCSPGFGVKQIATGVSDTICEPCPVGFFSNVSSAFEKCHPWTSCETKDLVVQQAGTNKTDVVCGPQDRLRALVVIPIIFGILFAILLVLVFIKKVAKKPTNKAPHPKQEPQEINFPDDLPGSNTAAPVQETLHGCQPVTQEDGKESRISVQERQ

Row | Binder | EC50 [µg/mL]
1 | B1 | 0.007
2 | B2 | 0.38
3 | B3 | 0.0049
4 | B4 | 0.0058
5 | B5 | 0.0061
6 | B6 | 0.0062
7 | B7 | 0.0044

Molecular target: T1, human CD40 on cells
Test: cell-based or functional assay

Row | Binder | Allo DC/T IFN-γ EC50 [µg/mL] | Allo DC/T IFN-γ Max [pg/mL]
8 | B1 | 0.04 | 8.9
9 | B2 | 0.2 | 8.7
10 | B3 | 0.03 | 8.5
11 | B4 | 0.15 | 9
12 | B5 | 0.12 | 9
13 | B6 | 0.08 | 9.5
14 | B7 | 0.03 | 9.5

Molecular target: T2, CD40hfc (R&Dsystems, USA) (UniProt P25942 21-193)
T2 construct: Bought reagent; also called immobilized CD40 receptor; target; not shown: Fc part ('hfc') of the bought fusion
Test: SPR (Biacore 3000), CD40hfc amine-coupled on chip, antibody as analyte, 37 C, pH 7.3
Method: (§3) The affinity measures of purified antibodies by surface plasmon resonance using the Biacore 3000 instrument was performed according to manufacturer's protocols.
(§4) The CD40hfc (R&Dsystems, USA) was immobilized to the BIAcore sensorchip, CMS, using conventional amine coupling. The anti-CD40 antibodies of the invention, (serially diluted 1/3 from 1-0.012 nM) were analysed for binding in HBS-P (GE, BR-1003-68) at a flow rate of 30 μl/min at 37° C. and pH 7.3. The association was followed for 3 minutes and the dissociation for 10 minutes. Regeneration was performed twice using 50 mM NaOH for 30 seconds. The kinetic parameters and the affinity constants were calculated using BlAevaluation 4.1 software.

T2 sequence (P25942 21-193 limits assumed): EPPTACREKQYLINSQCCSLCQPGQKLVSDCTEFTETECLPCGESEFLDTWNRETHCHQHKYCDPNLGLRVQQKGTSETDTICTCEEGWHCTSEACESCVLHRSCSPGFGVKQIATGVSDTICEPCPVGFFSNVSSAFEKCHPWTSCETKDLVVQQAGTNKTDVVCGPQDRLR

Row | Binder | Kd [nM] | koff [s⁻¹] | kon [M⁻¹ s⁻¹]
15 | B1 | 0.01 | 7.6e-05 | 7.3e+06
16 | B2 | 1.7 | 0.0045 | 2.7e+06
17 | B3 | 0.014 | 0.00012 | 8.5e+06
18 | B6 | 0.011 | 9.6e-05 | 8.5e+06
19 | B7 | 0.016 | 0.00013 | 8.5e+06

Molecular target: T1, human CD40 on cells
Test: cell-based or functional assay
Remark: another data set of the same source

Row | Binder | Activation of B cells, EC50 (proliferation of CD19+ B cells, Cell titer-Glo) [µg/mL]
20 | B1 | 0.16
21 | B2 | 0.204
22 | B3 | 0.48
23 | B4 | 0.4
24 | B5 | 0.288
25 | B6 | 0.29
26 | B7 | 0.46
27 | B8 | 0.21

Molecular target: T2, CD40hfc (R&Dsystems, USA)
Test: SPR (Biacore 3000), CD40hfc amine-coupled on chip, antibody as analyte, 37 C, acetate buffer pH 5.4
Method: as §3, §4
Alternatively, samples were incubated in Acetate buffer pH 5.4, 10 mM Acetate, 150 mM NaCl, 0.005% T20, at 37° C.

Row | Binder | Kd [nM] | koff [s⁻¹] | kon [M⁻¹ s⁻¹]
28 | B1 | 0.02 | 0.00022 | 1.1e+07
29 | B2 | 0.93 | 0.0055 | 6e+06
30 | B3 | 0.033 | 0.00032 | 9.7e+06
31 | B6 | 0.022 | 0.00025 | 1.1e+07

Molecular target: T1, human CD40 on cells
Test: cell-based or functional assay
Remark: another data set of the same source

Row | Binder | Fold change in potency versus B44 antibody (rescue of huCD40/WEHI-231 cells from apoptosis and growth arrest) [fold]
32 | B1 | 46
33 | B3 | 38
34 | B5 | 52
35 | B6 | 19

Molecular target: T1, human CD40 on cells
Test: cell-based or functional assay
Remark: another data set of the same source

Row | Binder | EC50 of CD80 up-regulation on monocyte-derived dendritic cells (FACS) [µg/mL] | EC50 of CD86 up-regulation on monocyte-derived dendritic cells (FACS) [µg/mL] | EC50 of MHC II up-regulation on monocyte-derived dendritic cells (FACS) [µg/mL] | Maximum Fold Increase of CD80 on dendritic cells [fold] | Maximum Fold Increase of CD86 on dendritic cells [fold] | Maximum Fold Increase of MHC II on dendritic cells [fold]
36 | B1 | 0.17 | 0.13 | 0.14 | 599 | 149 | 851
37 | B2 | 0.25 | 0.37 | 0.51 | 584 | 132 | 811
38 | B5 | 0.031 | 0.11 | 0.04 | 609 | 164 | 395
39 | B7 | 0.14 | 0.14 | 0.22 | 641 | 195 | 481

Molecular target: T2, CD40hfc (R&Dsystems, USA)
Test: SPR, physiological pH and 37 C
Method: as §3, §4

Row | Binder | fold improvement of affinity versus B44 [fold]
40 | B1 | ~100
41 | B3 | ~100
42 | B4 | ~100
43 | B5 | ~100
44 | B6 | ~100
45 | B7 | ~100
46 | B8 | ~100

Molecular target: T1, human CD40 on cells
Test: flow cytometry (FACS) on RAMOS cells
Method: as §1, §2

Row | Binder | fold increase in potency (binding to RAMOS cells) versus B44 [fold]
47 | B1 | ~100
48 | B3 | ~100
49 | B4 | ~100
50 | B5 | ~100
51 | B6 | ~100
52 | B7 | ~100
